This is an account of results in PMC7196598, “Architecture of the herpesvirus genome-packaging complex and implications for DNA translocation” (Protein & Cell, 2020).

Data set [1] deals with the molecule itself. Briefly: cryo-EM structure; purified terminase complex (1 mg/mL), apo or with ADP•BeF3 and pac2 DNA (58 bp; DNA not visible); hexameric and dodecameric assemblies, block-based reconstruction of one terminase complex.
Data set [2] concerns the molecule itself. Nature of the data set: AUC; sedimentation velocity, Beckman XL-I, 20 °C, 20 mmol/L Hepes, 300 mmol/L NaCl, pH 7.5, A280 ~0.8, 20,000 rpm; shown with SDS-PAGE and electron microscopy (Fig. 1B).

“And” between values parts separate entries of the source, which are not always exact repeats. Identical values can stand only once.

B1: HSV1-pUL15 (residues 1–737), ATPase/terminase subunit of the herpesvirus terminase complex (natural protein)
chain: MFGQQLASDVQQYLERLEKQRQLKVGADEASAGLTMGGDALRVPFLDFATATPKRHQTVVPGVGTLHDCCEHSPLFSAVARRLLFNSLVPAQLKGRDFGGDHTAKLEFLAPELVRAVARLRFKECAPADVVPQRNAYYSVLNTFQALHRSEAFRQLVHFVRDFAQLLKTSFRASSLTETTGPPKKRAKVDVATHGRTYGTLELFQKMILMHATYFLAAVLLGDHAEQVNTFLRLVFEIPLFSDAAVRHFRQRATVFLVPRRHGKTWFLVPLIALSLASFRGIKIGYTAHIRKATEPVFEEIDACLRGWFGSARVDHVKGETISFSFPDGSRSTIVFASSHNTNGIRGQDFNLLFVDEANFIRPDAVQTIMGFLNQANCKIIFVSSTNTGKASTSFLYNLRGAADELLNVVTYICDDHMPRVVTHTNATACSCYILNKPVFITMDGAVRRTADLFLADSFMQEIIGGQARETGDDRPVLTKSAGERFLLYRPSTTTNSGLMAPDLYVYVDPAFTANTRASGTGVAVVGRYRDDYIIFALEHFFLRALTGSAPADIARCVVHSLTQVLALHPGAFRGVRVAVEGNSSQDSAVAIATHVHTEMHRLLASEGADAGSGPELLFYHCEPPGSAVLYPFFLLNKQKTPAFEHFIKKFNSGGVMASQEIVSATVRLQTDPVEYLLEQLNNLTETVSPNTDVRTYSGKRNGASDDLMVAVIMAIYLAAQAGPPHTFAPITRVS
notes: pUL15 of herpes simplex virus 1 (HSV1), tripartite terminase subunit 3; construct printed as residues 1–737, while the results say pUL15 is 735 residues in length (domains end at 735); Cloned in pFastBac-HTA; No tag cleavage is described; also called ATPase/terminase pUL15; source: Sf9, co-infected with two recombinant baculoviruses (co-expressed with pUL28 and pUL33), purified (Ni-NTA, Superose …)
On to B1, for which the binding result in data set [1] is reported as “binds”.

B2: herpesvirus terminase complex (heterotrimer of pUL15, pUL28 and pUL33), wild type (complex)
chain 1: B1 chain
chain 2: MAAPVSEPTVARQKLLALLGQVQTYVFQIELLRRCDPHIGRGKLPQLKLNALQVRALRRRLRPGLEAQAGAFLTPLSVTLELLLEYAWREGERLLGSLETFATAGDVAAFFTETMGLARPCPYHQRVRLDTYGGTVHMELCFLHDVENFLKQLNYCHLITPSRGATAALERVREFMVGAVGSGLIVPPELSDPSHPCAVCFEELCVTANQGATIARRLADRICNHVTQQAQVRLDANELRRYLPHAAGLSDADRARALSVLDHALARTAGGDGQPHPSPENDSVRKEADALLEAHDVFQATTPGLYAISELRFWLASGDRAGQTTMDAFASNLTALARRELQQETAAVAVELALFGRRAEHFDRAFGSHLAALDMVDALIIGGQATSPDDQIEALIRACYDHHLTTPLLRRLVSPEQCDEEALRRVLARMGAGGAADAPKGGAGPDDDGDRVAVEEGARGLGAPGGGGEDEDRRRGPGGQGPETWGDIATQAAADVRERRRLYADRLTKRSLASLGRCVREQRGELEKMLRVSVHGEVLPATFAAVANGFAARARFCALTAGAGTVIDNRSAPGVFDAHRFMRASLLRHQVDPALLPSITHRFFELVNGPLFDHSTHSFAQPPNTALYYSVENVGLLPHLKEELARFIMGAGGSGADWAVSEFQRFYCFDGISGITPTQRAAWRYIRELIIATTLFASVYRCGELELRRPDCSRPTSEGRYRYPPGVYLTYDSDCPLVAIVESAPDGCIGPRSVVVYDRDVFSILYSVLQHLAPRLPDGGHDGPP
chain 3: MAGREGRTRQRTLRDTIPDCALRSQTLESLDARYVSRDGAHDAAVWFEDMTPAELEVVFPTTDAKLNYLSRTQRLASLLTYAGPIKAPDDAAAPQTPDTACVHGELLAAKRERFAAVINRFLDLHQILRG
notes: pUL15 of herpes simplex virus 1 (HSV1); construct printed as residues 1–737, while the results say pUL15 is 735 residues in length; pUL28 of herpes simplex virus 1 (HSV1); construct printed as residues 1–787; pUL33 of herpes simplex virus 1 (HSV1); construct printed as residues 1–132; One heterotrimer is one subunit of the hexameric ring; the hexamer and dodecamer are written as self-association …
Consider B2, for which, in data set [2], the “stoichiometry N” value is 6 and 12.
